Results on 1 molecule are retold here after US20190194309A1 (AGENCY FOR SCIENCE TECHNOLOGY AND RESEARCH, published 2019).

The experiment deals with T1, Macrophage stimulating protein receptor (RON - Recepteur d' Origine Nantais), human (human, UniProt Q04912 25-1400).
T1 construct: whole, on cells; Endogenous RON of human cancer cell lines (HCT116, HT29, T47D and others) or RON transfected into H1299 cells; In Western blots and immunoprecipitations it comes from cell lysates; also called human RON receptor tyrosine kinase; MST1R
The experiment is described as follows: immunofluorescence on PFA fixed HCT116 cells. The protocol: Cells were stained with DAPI for nuclear visualization and anti-mouse conjugate to 488 was used as a secondary mouse antibody.
The 4% paraformaldehyde fixed HCT116 and TKO cells were subjected to permeabilization with 0.4% Triton X-100 for 20 minutes. After rinsing with PBS, cells were blocked with 5% BSA in PBSTritonX (PBSTX) for 20 min, followed by overnight incubation in hybridoma supernatant at 4° C. IgGs were detected using 1:1000 […] Alexaflor 488 Donkey anti-mouse IgG conjugated (Life technologies) in PBSTX with 1% BSA. Subsequently, cells were counterstained with DAPI, and viewed with Incell Analyzer (GE Healthcare).

B1: 7G8 (antibody, V domains shown)
VH: EVQLEQSGGGLVQPGGSLKLSCAASGFTFNTYTMSWVRQTPEKRLEWVAYISNGGGSTYYPDTVKGRFTISRDNAKNTLYLQMSSLKSEDTAMYYCARGYRYAAMDYWGQGTSVTVSS
VL: DIVMTQTTATLSVTPGDGVSLSCRASQSINNNLHWYQQKSHESPRLLIKFASQSISGIPSRFSGSGSGTDFTLSINSVETEDFGMYFCQQSNSWPLTFGAGTKLELK
notes: Mouse monoclonal antibody from a hybridoma (Balb/c mice immunised with truncated human RON-GST); kappa light chain; Tested as hybridoma supernatant or purified mAb; also called mAb 7G8; anti-RON mouse mAb 7G8
Turning to B1, the binding result is reported as “binds”.
